Measured values reported in patent publication US12459987B2, “Monoclonal antibodies for prevention and treatment of herpes simplex viral infections” (priority 2019, dated 2025).
Entries after “also recorded” stand apart in the source; their conditions may differ.

Tests used:
[1] = system: HSV-2; assay: Passive transfer in vivo protection assay, lethal HSV-2 challenge; design: species or system mice
Method: Mice were prime-boost immunized with ΔgD-2 and the spleens, draining lymph nodes or bone marrow were isolated. Germinal center (GC) B cells were then cultured on NB-21.2D9 cells (Nojima cultures). After culture, supernatants were screened for the presence of HSV-lysate binding IgG by ELISA. The V(D)J rearrangements amplified from selected GC B-cell cultures for the B-cell antigen receptor (BCR) repertoire analysis in GC B cell clones among individual mice were sequenced. Then, reconstituted antibodies from selected single GC B cell cultures and from single, bone marrow plasmacytes were evaluated for ability to activate the mFcγRIV in vitro and to protect mice in a passive transfer model.
Both IgG1 and IgG2c forms of 22D10, 33B8, and BMPC-23 antibodies (≥4 mg each) were assessed for reproducibility of in vivo protection assay, and any dependency on Ig isotype for protection. […] To test roles of Ig isotypes on ability to provide protection, IgG1 and IgG2c isotypes of these three antibodies were generated and assessed for ability to activate mFcγRIV signaling (as a measurement for ADCC), and for in vivo protection assay.

[2] = molecular target: glycoprotein B of HSV-1 (gB-1) (Human herpesvirus 1, UniProt P10211); assay: Luminex multiplex assay, binding to gB-1; settings: Table 3 summary
Method: FIGS. 9A and 9B are graphs of median fluorescence intensity (MFI) versus IgG concentration (ng/ml), showing the binding of various recombinant antibodies to gB-1 as measured by Luminex multiplex assay.
BMPC-23 binds HSV-1 gB (gB-1). The gB-1 binding of the antibodies was determined by Luminex multiplex assay. Mixtures of antigen (gB-1)-conjugated microspheres (1,000 counts each) were added to each well of 96-well filter plates (Millipore). After washing with PBS containing 1% BSA, 0.05% Tween 20 and 0.05% NaN3, serially diluted recombinant antibodies (5E7, 19G7, 18G4, 22E10, 3A2, 17G3, 22D10, 32H6, 33B8, 25H7, BMPC-23, and S5V2-29) were added to the plates and incubated for 2 hours at room temperature, with mild agitation of the plates. Samples were diluted in PBS containing 1% cow milk, 1% BSA, 0.05% Tween 20 and 0.05% NaN3. After washing, PE goat anti-mouse IgG was added to the plates and incubated for 1 hour at room temperature with mild agitation. After washing, microspheres were resuspended in PBS containing 1% BSA, 0.05% Tween 20 and 0.05% NaN3 and fluorescent signals from each microsphere were measured in a Bio-Plex® 3D machine.
Finding gB-1 specific HSV antibodies. After Nojima culture (single B-cell culture), HSV-specific antibodies were cloned from germinal center B cells and tested for binding to HSV-1 gB-1 by Luminex multiplex assay as described above. FIGS. 9A and 9B show the gB-1 binding results for 10 antibodies in comparison with BMPC-23. With the exception of BMPC-23, the antibodies in Table 3 were derived from germinal center B cells (lymph nodes) taken 15-17 days after primary vaccination with ΔgD-2. BMPC-23 was derived from bone marrow plasmacytes taken 2 weeks post-boost with ΔgD-2. Nucleotide sequences and amino acid sequences for the heavy-chains and light chains are shown in Table 4, as are the amino acid sequences for the light chain and heavy chain CDR1, CDR2, and CDR3.

[3] = molecular target: human herpesvirus glycoprotein B (gB) (Human herpesvirus 2, UniProt P08666); assay: Immunoprecipitation-Mass Spectrometry (IP-MS) target identification; type: binding
Method: FIG. 7A-7B. Immunoprecipitation-Mass Spectrometry (IP-MS) was performed to identify the binding targets of 22D10, 33B8, and BMPC-23 antibodies.
IP-MS was performed to identify the targets of 22D10, 33B8, and BMPC-23 antibodies.

[4] = system: uninfected Vero lysate; assay: ELISA binding to control uninfected Vero lysate
Method: (§1) Binding of recombinant antibodies to HSV-2 G lysates was tested by ELISA. Both heavy and light chain V(D)J rearrangements were amplified from selected single B-cell culture wells (22D10, 32H6, 33B8, and 35H7) by standard RT-PCR. These cloned V(D)J rearrangements were introduced into expression vectors. Recombinant antibodies were obtained by co-transfection of these expression vectors into Expi293F cells. ≥4 mg of purified IgGs was obtained (not shown).
as §1, with “Based on the obtained V(D)J sequences from each B-cell culture, paired heavy and light chains were re-expressed (as recombinant mouse IgG1 and IgG2c antibodies) in Expi293F cells (Kuraoka et al. Immunity 2016; DiLillo et al. Nature Medicine 2013). […] As expected, all recombinant antibodies reacted specifically with HSV-2 G lysates (FIG. 3). […] Binding” for “Binding”, “shown). […]” for “shown).”

[5] = system: HSV-2 G infected cell lysates; assay: ELISA binding of recombinant antibodies to HSV-2 G infected cell lysates; design: species or system HSV-2 G strain
Method: as §1, with “shown). […]” for “shown).”
Briefly, mice were vaccinated with ΔgD-2 and then 16 days after vaccination, the draining, inguinal lymph nodes were harvested. GC B cells were isolated from these tissues and were cultured in Nojima cultures. Although overall cloning efficiency of GC B cells from these (shipped) tissues was lower than those from freshly isolated tissues (6% vs. 20%), 50 GC clones were obtained that were specific to HSV-2 G strain (HSV-2 G or HSV2-G) lysate. GC B cells from inguinal lymph nodes of mice vaccinated with ΔgD-2 were sorted directly into 96-well plates (1 cell/well). These GC B cells were then cultured in the presence of NB-21.2D9 feeder cells. After culture, presence of IgG was first determined by ELISA, and then the reactivity of culture supernatant IgG against HSV-2 G lysates (HSV-2 G) and uninfected Vero lysates were tested by ELISA.
Based on the obtained V(D)J sequences from each B-cell culture, paired heavy and light chains were re-expressed (as recombinant mouse IgG1 and IgG2c antibodies) in Expi293F cells (Kuraoka et al. Immunity 2016; DiLillo et al. Nature Medicine 2013). […] As expected, all recombinant antibodies reacted specifically with HSV-2 G lysates (FIG. 3). […] Binding of recombinant antibodies to HSV-2 G lysates was tested by ELISA. Both heavy and light chain V(D)J rearrangements were amplified from selected single B-cell culture wells (22D10, 32H6, 33B8, and 35H7) by standard RT-PCR. These cloned V(D)J rearrangements were introduced into expression vectors. Recombinant antibodies were obtained by co-transfection of these expression vectors into Expi293F cells. ≥4 mg of purified IgGs was obtained (not shown). […] These recombinant antibodies (≥4 mg each) were tested for identification of reacting antigen(s), in an in vitro FcγRIV activation assay (Promega FcγRIV ADCC Reporter Bioassay)(FIG. 4), and in vivo protection assay. […]

B1: 33B8: monoclonal antibody from germinal center B cell; IgH SEQ ID NO: 28, IgL SEQ ID NO: 30 (antibody, V domains shown)
VH: EVKLVESGGGLVQPGGSLSLSCATSGFTFTDYYMNWVRQPPGKALEWLGFIRNKANGYTTEYSASVKGRFTISRDNSQSILYLQMNSLRAEDSATYYCACGNYVGYAMDYWGQGTSVTVSSA
VL: DIVMSQSPSSLAVSAGEKVTMSCKSSQSLLNSRTRKNYLAWYQQKPGQSPKLLIYWASTRESGVPDRFTGSGSGTDFTLTISSVQAEDLAVYYCKQSYNLYTFGGGTKLEIKR
modifications: 33B8 heavy chain; 33B8 light chain
[1]; IgG2c version, overall results from 2 independent experiments, passive transfer
  Mice protected from lethal challenge: 4/10
[1]; Table 3 summary
  in vivo protection: Yes
[1]; as IgG2c, passive transfer, overall survival, epithelial and neurological assays
  Protection against lethal HSV-2 challenge: significant protection; also recorded: provides protection
[2]
  Target antigens: (not gB)
[3]
  Binding target identified by IP-MS: human herpesvirus glycoprotein B (gB)
[4]
  Binding to control, uninfected Vero lysate: did not bind
[5]; ELISA, recombinant antibodies expressed in Expi293F cells
  Binding of recombinant antibodies to HSV-2 G lysates: Retention of HSV-2 G lysate-binding
[5]; Table 3 summary
  Binding to HSV-lysate: Yes
